This passage reports tumor volume results from US11407840B2, “Antibodies to M(H)DM2/4 and their use in diagnosing and treating cancer” (NomoCan Pharmaceuticals LLC, priority 2017, dated 2022).

The test has as its system mouse Lewis Lung cancer LL/2 cells (subcutaneous tumors). The test can be described thus: LL/2 syngeneic mouse model of lung cancer. It counts as in vivo, mouse (C57BL/6). The following applies: day 21; 0.4 mg/kg i.p. 3 times a week for 3 weeks, started with tumor cell inoculation; FIG. 16. As for the experimental part:
Methodology used (Syngeneic Mouse Models of lung, colon and pancreatic cancer): To investigate the anti-tumor effects of HDM2-specific antibodies on lung, colon and pancreatic tumors in vivo, three well-known syngeneic mouse models of lung, colon and pancreatic cancer were used (Sharma et al, 1999, J. Immunol. 163 (9):5020-5028; McIntyre, 2015, Bioassays 37(8):909-920; Li, et al, 2015, Sci. Rep. 5:7856). Subcutaneous tumors were prepared by implanting either mouse Lewis Lung cancer LL/2 cells (2.5×10^5 cells/mouse), mouse colon cancer MC-38 cells (5×10^5 cells/mouse) or mouse pancreatic cancer Panc-2 cells (2×10^6 cells/mouse) in the right flanks of 8-week-old female C57BL/6 mice (n=6-7). The mice were returned to their respective cages after tumor implantation. From day 7 after tumor implantation, the tumor volumes were measured 2 times/week with a digital caliper. In the case of MC-38 and Panc-2 study, treatment started when the tumors reached an average of 70-80 mm^3. In the case of LL/2 study, tumor cell inoculation and treatment were initiated simultaneously. Mice were micro-chipped and registered following tumor implantation. […]

B1: NMC-204: mouse monoclonal antibody, IgG3 isotype, binds NMC-P2 (SEQ ID NO:2); VH SEQ ID NO:38, VL SEQ ID NO:39 (antibody, V domains shown)
VH: EVQLQESGSVLVRPGASVKLSCKASGDTLSGSWMHWAMQRPGQGLEWIGEIHLNRGTTNYNEKFKGKATVTVDTSSSTAYVDLSSLTSEDSAVYYCARSPGFAYWGQGTLVTVSA
VL: GIVMTQAAPSVPVTPGESVSISCRSSKSLLHSNGNSYLYWFLQRPGQSPQLLIYRMSNLASGVPDRFSGSGSGTAFTLRITRVEAEDVGVYYCMQHLEYPFTFGSGTKLEIK
modifications: mAb NMC-204 Heavy Chain Variable Region; mAb NMC-204 Light Chain Variable Region
B1: the tumor volume was found to be 1446 mm^3.
